Laboratory results reported in patent US20220235109A1 (CUGENE, published 2022).

Assays:
[1] = biological target: T1, recombinant IL-2Rβγ heterodimer (human); assay: ELISA, IL-2Rβγ-Fc heterodimer coated
T1 construct: IL-2Rβ ECD at the N-terminus of Fc hole chain, γc ECD at the N-terminus of Fc knob chain; also called recombinant IL-2Rβγ protein; dimeric IL-2Rβγ receptor
T1 chain 1: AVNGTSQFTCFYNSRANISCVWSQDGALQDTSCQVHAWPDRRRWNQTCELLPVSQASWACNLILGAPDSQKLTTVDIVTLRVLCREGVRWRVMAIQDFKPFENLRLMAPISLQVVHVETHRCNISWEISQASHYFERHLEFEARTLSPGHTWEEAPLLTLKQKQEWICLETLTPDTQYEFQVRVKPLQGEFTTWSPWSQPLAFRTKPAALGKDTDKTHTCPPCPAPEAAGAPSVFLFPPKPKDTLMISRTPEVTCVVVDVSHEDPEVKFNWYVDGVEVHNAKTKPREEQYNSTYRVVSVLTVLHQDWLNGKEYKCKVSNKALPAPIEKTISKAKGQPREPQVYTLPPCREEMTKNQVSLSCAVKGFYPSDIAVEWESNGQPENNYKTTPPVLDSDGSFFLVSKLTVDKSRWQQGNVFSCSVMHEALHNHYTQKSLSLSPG
T1 chain 2: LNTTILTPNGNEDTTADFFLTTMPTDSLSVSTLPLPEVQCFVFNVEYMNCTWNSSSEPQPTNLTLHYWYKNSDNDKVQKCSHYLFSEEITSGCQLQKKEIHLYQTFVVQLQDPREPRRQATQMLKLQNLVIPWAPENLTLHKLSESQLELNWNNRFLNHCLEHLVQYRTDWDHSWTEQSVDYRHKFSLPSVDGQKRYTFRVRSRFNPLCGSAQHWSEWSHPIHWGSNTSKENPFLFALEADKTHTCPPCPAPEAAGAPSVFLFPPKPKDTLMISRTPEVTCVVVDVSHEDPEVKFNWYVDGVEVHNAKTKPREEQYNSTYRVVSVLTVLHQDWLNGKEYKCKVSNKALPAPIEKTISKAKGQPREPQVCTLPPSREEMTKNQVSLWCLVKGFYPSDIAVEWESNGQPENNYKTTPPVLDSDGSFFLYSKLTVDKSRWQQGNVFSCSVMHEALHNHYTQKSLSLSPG
Protocol: After overnight incubation at 4° C. and blocking with 1% BSA, 3-fold serial dilutions of IL-2 Fc fusion proteins starting at 10 nM were added to each well at 100 μl/well. […] Subsequently, 100 μl/well of streptavidin-HRP (1:5000 diluted in diluent) were added to each well and incubated at room temperature for 40 min. Wells were thoroughly aspirated and washed three times with PBS/0.05% Tween-20 following each step. Finally, 100 μl TMB substrate was added to each well; the plate was developed at room temperature in the dark for 10 minutes, and 100 μl/well of stop solution (2N Sulfuric acid, Ricca Chemical) was added. Absorbance was determined at 450 nm and curves were fit using Prism software (GraphPad).

[2] = biological target: T2, PD1 expressed on cell surface (UniProt Q15116 25-288, limits assumed); assay: FACS on PD-1-expressing cells
T2 construct: whole, on cells; also called PD-1-expressing cells; cell surface expressed PD-1
T2 sequence (Q15116 25-288 limits assumed): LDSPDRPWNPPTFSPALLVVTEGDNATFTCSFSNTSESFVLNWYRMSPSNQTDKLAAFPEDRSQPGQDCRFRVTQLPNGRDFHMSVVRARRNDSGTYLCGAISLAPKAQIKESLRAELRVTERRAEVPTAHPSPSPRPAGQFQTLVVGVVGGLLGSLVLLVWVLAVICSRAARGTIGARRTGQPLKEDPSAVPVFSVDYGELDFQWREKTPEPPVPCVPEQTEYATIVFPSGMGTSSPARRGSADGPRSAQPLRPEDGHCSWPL

- binding result [1]: binds
- binding result [2]: no binding
B1: P-0759 (Fc fusion)
chain 1: DKTHTCPPCPAPEAAGAPSVFLFPPKPKDTLMISRTPEVTCVVVDVSHEDPEVKFNWYVDGVEVHNAKTKPREEQYNSTYRVVSVLTVLHQDWLNGKEYKCKVSNKALPAPIEKTISKAKGQPREPQVCTLPPSREEMTKNQVSLWCLVKGFYPSDIAVEWESNGQPENNYKTTPPVLDSDGSFFLYSKLTVDKSRWQQGNVFSCSVMHEALHNHYTQKSLSLSPGGGGSGGGSAPTSSSTKKTQLQLEHLLQDLQMILNGINNYKNPKLTRMLTFKFYMPKKATELKHLQCLEEELKRLEEVLNLAQSKNFHLRPRDLISNINVIVLELKGSETTFMCEYADETATIVEFLNRWITFIQSIISTLT
chain 2: DKTHTCPPCPAPEAAGAPSVFLFPPKPKDTLMISRTPEVTCVVVDVSHEDPEVKFNWYVDGVEVHNAKTKPREEQYNSTYRVVSVLTVLHQDWLNGKEYKCKVSNKALPAPIEKTISKAKGQPREPQVYTLPPCREEMTKNQVSLSCAVKGFYPSDIAVEWESNGQPENNYKTTPPVLDSDGSFFLVSKLTVDKSRWQQGNVFSCSVMHEALHNHYTQKSLSLSPG
notes: knob chain carries the IL-2 variant; hole-Fc; monovalent; also called IL-2 L19Q/P65R/S125I monovalent Fc fusion
